Each block holds one molecule with its values, some of them ahead of it.
Experiments:
[1] = target: Flag-RAD51C (of the BCDX2 complex) (human) (UniProt O43502); assay: native MS; purified BCDX2 in 500 mM ammonium acetate pH 7.5; low activation energy for the intact complex, in-source trapping (-50 to -250 V) to dissociate it
[2] = target: T1, CX3 (RAD51C-XRCC3) (Homo sapiens, UniProt O43502;O43542 1-376;1-346); assay: EMSA; 1 mM ATP, 58 nM DNA; Buffer E (composition not in the material), 37 °C, 10 min; paralogs: 50 mM KCl, 1 mM ATP, 0.8% agarose gel; RAD51: 100 mM KCl, 2 mM ATP, 6% TBE-PAGE; conditions: protein: recombinant, tags: N-terminal His6-Flag on RAD51C, copies: 1;1, 25 bp duplex
T1 sequence 1: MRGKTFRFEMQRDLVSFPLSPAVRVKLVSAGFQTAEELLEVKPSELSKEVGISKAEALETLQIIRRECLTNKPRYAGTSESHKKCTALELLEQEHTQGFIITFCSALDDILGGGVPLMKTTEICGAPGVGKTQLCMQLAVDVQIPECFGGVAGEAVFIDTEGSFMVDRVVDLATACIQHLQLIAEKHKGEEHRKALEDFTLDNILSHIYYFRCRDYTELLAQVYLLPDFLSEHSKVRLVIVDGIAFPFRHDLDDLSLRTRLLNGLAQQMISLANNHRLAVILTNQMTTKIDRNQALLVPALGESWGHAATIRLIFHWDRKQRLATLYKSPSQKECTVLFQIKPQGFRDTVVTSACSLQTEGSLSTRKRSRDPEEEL
T1 sequence 2: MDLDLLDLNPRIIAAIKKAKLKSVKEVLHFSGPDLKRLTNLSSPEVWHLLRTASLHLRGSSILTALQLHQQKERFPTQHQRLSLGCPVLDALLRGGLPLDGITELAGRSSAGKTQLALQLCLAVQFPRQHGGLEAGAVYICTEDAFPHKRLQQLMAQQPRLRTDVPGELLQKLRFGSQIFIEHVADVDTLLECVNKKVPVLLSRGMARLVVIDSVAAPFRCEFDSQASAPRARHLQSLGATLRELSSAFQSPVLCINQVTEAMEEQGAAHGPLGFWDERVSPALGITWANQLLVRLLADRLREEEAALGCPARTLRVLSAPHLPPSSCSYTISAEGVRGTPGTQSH

[3] = target: T2, BCDX2 (RAD51B-RAD51C-RAD51D-XRCC2) (Homo sapiens, UniProt O15315;O43502;O75771;O43543 1-384;1-376;1-328;1-280); assay: as above; conditions: protein: recombinant, tags: N-terminal Flag on RAD51C, N-terminal His6 on XRCC2, TEV sites, copies: 1;1;1;1
T2 sequence 1: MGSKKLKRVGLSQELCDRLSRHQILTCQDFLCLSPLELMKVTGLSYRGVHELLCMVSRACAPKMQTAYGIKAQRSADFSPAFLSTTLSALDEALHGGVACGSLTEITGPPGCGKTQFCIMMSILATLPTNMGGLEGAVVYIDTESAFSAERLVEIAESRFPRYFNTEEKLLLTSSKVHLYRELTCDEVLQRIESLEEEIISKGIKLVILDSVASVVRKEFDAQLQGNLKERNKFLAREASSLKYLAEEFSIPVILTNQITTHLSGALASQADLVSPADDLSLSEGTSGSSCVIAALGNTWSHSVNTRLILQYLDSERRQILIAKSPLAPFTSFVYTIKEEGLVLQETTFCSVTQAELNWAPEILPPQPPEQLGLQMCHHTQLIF
T2 sequence 2: T1 sequence 1
T2 sequence 3: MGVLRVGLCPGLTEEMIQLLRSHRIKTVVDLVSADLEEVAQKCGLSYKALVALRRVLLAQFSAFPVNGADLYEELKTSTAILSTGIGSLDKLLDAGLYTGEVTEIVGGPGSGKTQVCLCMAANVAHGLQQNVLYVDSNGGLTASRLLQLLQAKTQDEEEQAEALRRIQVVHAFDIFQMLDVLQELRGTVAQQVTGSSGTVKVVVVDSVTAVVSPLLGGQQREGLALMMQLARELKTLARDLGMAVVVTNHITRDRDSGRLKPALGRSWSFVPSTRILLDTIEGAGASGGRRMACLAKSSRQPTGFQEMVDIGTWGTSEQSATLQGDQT
T2 sequence 4: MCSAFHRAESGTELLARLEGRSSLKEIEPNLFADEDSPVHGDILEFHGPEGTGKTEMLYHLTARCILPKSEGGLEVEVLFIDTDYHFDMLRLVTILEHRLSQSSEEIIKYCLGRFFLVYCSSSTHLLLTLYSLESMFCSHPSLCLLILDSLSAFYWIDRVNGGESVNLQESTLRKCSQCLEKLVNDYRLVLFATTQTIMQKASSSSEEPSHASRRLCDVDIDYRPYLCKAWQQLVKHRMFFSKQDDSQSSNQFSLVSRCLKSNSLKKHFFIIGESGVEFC

[4] = target: T3, His6-XRCC2 (of the BCDX2 complex) (human, UniProt O43543 1-280); assay: native MS; purified BCDX2 in 500 mM ammonium acetate pH 7.5; low activation energy for the intact complex, in-source trapping (-50 to -250 V) to dissociate it; conditions: both partners purified
T3 construct: human XRCC2, cDNA; a TEV cutting site stands between the tag and the gene; No TEV cleavage is described in the purification; source: Expi293F cells, transfected, co-expressed from pcDNA3.4-tetrad-BCDX2; purified as part of the complex (Ni-NTA, anti-Flag M2 agarose, Superdex 200); not shown: His6, N-terminal, kept
T3 sequence (looked up): T2 sequence 4

stoichiometry N [1]: 1
Molecule: RAD51B (from UniProt O15315 1-384) (natural protein)

B1: 5' overhang DNA (oligo 7 + oligo 8) (mixed)
DNA 1: GGGTGAACCTGCAGGTGGGCAAAGA
DNA 2: ACGCTGCCGAATTCTACCAGTGCCTTGCTAGGACATCTTTGCCCACCTGCAGGTTCACCC
modifications: oligo 8: phosphorothioate bonds at both ends (first 5 and last 5 linkages)
binding result ([2]; label: 5' Cy3 on oligo 7, 5' overhang 35 nt on strand 2): binds | binding result ([3]; label: 5' Cy3 on oligo 7, 25 bp duplex, 5' overhang 35 nt on strand 2): binds

B2: 3' overhang DNA (oligo 9 + oligo 8) (mixed)
DNA 1: AGGCACTGGTAGAATTCGGCAGCGT
DNA 2: B1 DNA 2
modifications: oligo 8: phosphorothioate bonds at both ends (first 5 and last 5 linkages)
binding result ([2]; label: 3' Cy3 on oligo 9, 3' overhang 35 nt on strand 2): binds | binding result ([3]; label: 3' Cy3 on oligo 9, 25 bp duplex, 3' overhang 35 nt on strand 2): binds

stoichiometry N [4]: 1
B3: RAD51D (natural protein, human, UniProt O75771 1-328, looked up)
chain: T2 sequence 3
notes: No tag is described on this chain; also called D (in BCDX2 and DX2); source: Expi293F cells, transfected, co-expressed with the other paralogs from one plasmid; purified as part of the complex (Ni-NTA, anti-Flag M2 agarose, Superdex 200)

B4: dsDNA 55 bp (oligo 13 + oligo 14) (dsDNA)
DNA 1: TTAGAGCTTAATTGCTGAATCTGGTGCTGTGGGTGAACCTGCAGGTGGGCAAAGA
DNA 2: TCTTTGCCCACCTGCAGGTTCACCCACAGCACCAGATTCAGCAATTAAGCTCTAA
binding result ([3]; label: 5' Cy3 on oligo 13, blunt): no binding

Source: publication PMC10681713, “RAD51 paralogs synergize with RAD51 to protect reversed forks from cellular nucleases” (Nucleic Acids Research, 2023)
